The results in this text go back to article PMC2552378.

What all share (experiment): purified protein
Substrate in data set [1]: Nc1ncnc2c1ncn2[C@@H]1O[C@H](COP(=O)(O)OP(=O)(O)OP(=O)(O)O)[C@@H](O)[C@H]1O
Conditions: 6 mM MgCl2, 150 mM KCl, 50 mM Mops pH 7.8.

Substrate in data set [2]: C[N+](C)(C)CCO
It is filed as biochemical, Trypanosoma brucei. Conditions: 5 mM ATP, 6 mM MgCl2, 150 mM KCl, 50 mM Mops pH 7.8.

Substrate in data set [3]: NCCO
In kind it is biochemical, Trypanosoma brucei. Conditions: 5 mM ATP, 6 mM MgCl2, 150 mM KCl, 50 mM Mops pH 7.8.

B1: TbC/EK2 (Trypanosoma brucei brucei TREU927) (protein)
chain: MALRPFPLGNTPLHAVIRRSAREFECVEAVPASNAVRSPSTASWVSAESLDSIISLANRTSEEMEVDQLIYRLCRSLYHVAKKKSAQIHCHPNHQERQQQQQQASSSGWRSVECEGHFSNMRGREDWCPLLHLFDPRSYYKVMGQPSQHDGCKLCGDVVGTESSPEGVSQWLMSELSVTRLTGGNSNHVYRLGHASFPKKAVLLRVYGDGGGGDVIDRARDIKVMRLMSKSEMGPGLLHTFHWGRVEEFMDGVLTCTTEKLLTSPSLLADVYGGLSKMHQLDYTPLLPENMRTKGMSNGHNSSQSVSDTVSKSGGGQEGPDGTVGGVNELESTCHTSFERVCLRLLRLVSLNVVEEHRHSLESWLAGEVMFVRRELQYRGIPVVLSHNDLNPGNILLSDGAGEASGTVFSDEELRVENTPLSKRYVTRKGKNMNLVERRGFLFIDFEYADANYRCFDLGNTLCELDYDYTRGTEAGGRGFIKYLFVFPPPAMEEAWRGLGEEYPRMPELIYDAWRRGVCDGSSDIGSVALLAVRRYFAERDNVPLETVELSEAQVGEVLLGMLASHLYWTIWSMTMGSAPDNCVECEDCDDQMFAVGGSGLDYMRYGECRLREYIALRGWLAEKGLLS
Regarding B1, the Km in data set [1] (2 mM choline) worked out at 20.6 ± 1.96 µM; in data set [2], 31.4 ± 2.6 µM; in data set [3], 2560 ± 310 µM. Besides, the catalytic constant (kcat) in data set [1] (2 mM choline), in data set [2] and in data set [3] was 12.91 s⁻¹ each time. The kcat/Km in data set [1] (2 mM choline) stood at 627000 M⁻¹ s⁻¹; in data set [2], 411000 M⁻¹ s⁻¹; in data set [3], 5040 M⁻¹ s⁻¹.

B2: TbEK1 (formerly TbC/EK1) (Trypanosoma brucei brucei TREU927) (protein)
chain: MEVAVGHVRHVPCTVPDDPASRMRAIREIVARHCALFMQKGGDVGRSQCASNLGNNITSGTSNGFDADRLQVVAFSGGITNEMYHVYCEGWEAHSVVMRIFGKETERVISRGDELFYQSLFIPTYVRGQNFLVYQYLYQYEPLPFVEMVKEYEKIARGIAFFHVRATLEARSDYSVTPVGGVVGAGGATVGPTNTCSRFDLEENYIVHSLTEWVEQALSETVQEKVDATKRATYASVAQQLKEEAQWLLPLMQRHSPELGESTCHNDLLSGNIMRQKSDGALKIIDFEYAKRNYFLFDIANHFNEYTGLECDYATYFPSEEHMKKFVTTYMCAMREELEKHAEEAKRRQLTDIIPGQQHFFMCDVGGVEGDKRIHRMVQLVKLLTLASHLSWSVWALLQEAVSKTDMDFLRYSQLRLSRYLETRKEFSASS
Consider B2, for which, in data set [1] (2 mM ethanolamine), the Km was determined as 219.2 ± 29 µM, the kcat amounted to 6.56 s⁻¹ and the kcat/Km amounted to 29900 M⁻¹ s⁻¹. Moreover, in data set [3], the Km was found to be 18.4 ± 0.9 µM, the kcat was 6.56 s⁻¹ and the kcat/Km came to 357000 M⁻¹ s⁻¹.
